Source: PMC3508374 (Molecular microbiology, 2012)
Numbering of substitutions follows the chain as printed. Numbers in names are those of the source.

B1: Bacillus subtilis Fur (ferric uptake regulator), wild type (natural protein, UniProt P54574 1-149, looked up)
chain: MENRIDRIKKQLHSSSYKLTPQREATVRVLLENEEDHLSAEDVYLLVKEKSPEIGLATVYRTLELLTELKVVDKINFGDGVSRYDLRKEGAAHFHHHLVCMECGAVDEIEEDLLEDVEEIIERDWKFKIKDHRLTFHGICHRCNGKETE
B2: Bacillus subtilis Fur H132A (site 3 mutant) (natural protein, UniProt P54574 1-149, looked up)
chain: B1 chain with H132A
B3: Bacillus subtilis Fur H96A (site 3 mutant) (natural protein, UniProt P54574 1-149, looked up)
chain: B1 chain with H96A
B4: Bacillus subtilis Fur H37A (site 2 mutant) (natural protein, UniProt P54574 1-149, looked up)
chain: B1 chain with H37A
B5: Bacillus subtilis Fur H97A (site 2 mutant) (natural protein, UniProt P54574 1-149, looked up)
chain: B1 chain with H97A
B6: Bacillus subtilis Fur H95A (site 2 mutant) (natural protein, UniProt P54574 1-149, looked up)
chain: B1 chain with H95A

Biological target: the molecule itself
Experiment: SEC

Stoichiometry N, 2:
B1
B2
B3
B4
B5
B6
